Consider one molecule from paper PMC7435236, “Self‐Assembling Glycopeptide Conjugate as a Versatile Platform for Mimicking Complex Polysaccharides” (Advanced Science, 2020).

This test concerns splenocytes from immunized mice. The test can be described thus: IFN‐γ production by splenocytes of immunized mice after in vitro re-stimulation (ELISA). Format: in vivo, C57BL/6 mice. The following applies: spleen cells from vaccinated mice (NPs plus OVA, or OVA only), OVA stimulation 48 h in vitro. Here is the method:
To further investigate the activation ability of mannosylated nanoparticles, the spleen cells from mice that vaccinated for 4 weeks with mannosylated NPs plus OVA (group 1) and OVA only (group 4) were stimulated by OVA for 48 h in vitro. The expression levels of IFN‐γ in cell media with or without OVA stimulation was measured by ELISA (Figure 6c).
After immunization, the spleens of the immunized mice were removed under sterile conditions and suspended in sterile cold PBS. After centrifugation, the cell suspension was diluted to 2 × 10^6 cells mL^−1 in RPMI 1640 supplemented with 10% FBS, 100 µg mL^−1 streptomycin and 100 unit mL^−1 penicillin, and cultured overnight. After removal of the non‐adherent cells, the medium was changed, and the OVA protein in buffer and PBS buffer only were added to different wells, respectively, and cultured for 48 h. The culture media was then collected and diluted for the ELISA tests. Following the instructions of ELISA kit, the samples, anti‐IFN‐γ antibody, and chromogenic substrates were added in order. The corresponding OD450 was measured by Multiskan GO (Thermo Scientific) microplate reader.
(In an ELISA, binding on a coated surface is turned into a signal by an enzyme label.)

B1: OVA: Ovalbumin, model antigen for evaluation of vaccine adjuvants (protein, UniProt P01012 2-386, looked up)
Ovalbumin: GSIGAASMEFCFDVFKELKVHHANENIFYCPIAIMSALAMVYLGAKDSTRTQINKVVRFDKLPGFGDSIEAQCGTSVNVHSSLRDILNQITKPNDVYSFSLASRLYAEERYPILPEYLQCVKELYRGGLEPINFQTAADQARELINSWVESQTNGIIRNVLQPSSVDSQTAMVLVNAIVFKGLWEKAFKDEDTQAMPFRVTEQESKPVQMMYQIGLFRVASMASEKMKILELPFASGTMSMLVLLPDEVSGLEQLESIINFEKLTEWTSSNVMEERKIKVYLPRMKMEEKYNLTSVLMAMGITDVFSSSANLSGISSAESLKISQAVHAAHAEINEAGREVVGSAEAGVDAASVSEEFRADHPFLFCIKHIATNAVLFFGRCVSP
As to B1, the “IFN‐γ expression in cell media” value was “Upregulation of IFN‐γ”.
